# What was measured:
# [1] = tested on: AtEndoV (Y100A) (Arabidopsis thaliana); assay: SPR; settings: SPR (ProteOn XPR36, NLC chip): PBS, 0.005% Tween 20, pH 7.4, 1 mM EDTA, no divalent metal, 25 C, protein 31.25-500 nM
# [2] = tested on: AtEndoV (WT) (Arabidopsis thaliana); assay: SPR; settings: SPR (ProteOn XPR36, NLC chip): PBS, 0.005% Tween 20, pH 7.4, 1 mM EDTA, no divalent metal, 25 C, protein 31.25-500 nM
# [3] = N at position 11 = deoxyinosine
Sequence,"Kd [1, 3]","Kd [2, 3]",Kd ([1]; N at position 11 = inosine),Kd ([2]; N at position 11 = inosine)
CTGTATGATGNAGATGCTGAC [ssDNA(dI) 21-mer],160 µM,220 µM,,
CUGUAUGAUGNAGAUGCUGAC [ssRNA(I) 21-mer],,,0.12 µM,0.002 µM

# Reference: paper PMC8526164
